Measured values reported in patent US20150204870A1.

Biological target: thyroglobulin

Sequence of SNA (natural lectin, not treated with PNGaseF) (Q41358 29-289): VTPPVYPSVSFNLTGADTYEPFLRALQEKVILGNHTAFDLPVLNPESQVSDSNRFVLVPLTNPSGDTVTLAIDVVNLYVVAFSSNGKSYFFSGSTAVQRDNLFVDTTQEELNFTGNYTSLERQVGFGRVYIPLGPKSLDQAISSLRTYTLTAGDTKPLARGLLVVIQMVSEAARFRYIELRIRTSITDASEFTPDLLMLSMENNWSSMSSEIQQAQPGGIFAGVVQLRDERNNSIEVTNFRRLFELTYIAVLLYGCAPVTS
Sequence of SNA (natural lectin, not treated with PNGaseF) (Q41358 309-570): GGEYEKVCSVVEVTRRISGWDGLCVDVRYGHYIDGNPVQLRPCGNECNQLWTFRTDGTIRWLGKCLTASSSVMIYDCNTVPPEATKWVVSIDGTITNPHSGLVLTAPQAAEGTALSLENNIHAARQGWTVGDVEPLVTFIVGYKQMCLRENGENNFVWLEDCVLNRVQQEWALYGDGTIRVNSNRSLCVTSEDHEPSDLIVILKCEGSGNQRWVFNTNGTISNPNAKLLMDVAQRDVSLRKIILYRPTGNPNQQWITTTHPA
Sequence of SNA treated with PNGaseF (sugar chain-removed natural lectin) (Q41358 29-289): as the sequence (Q41358 29-289) above
Sequence of SNA treated with PNGaseF (sugar chain-removed natural lectin) (Q41358 309-570): as the sequence (Q41358 309-570) above

SSA (natural lectin, not treated with PNGaseF)
S/N Ratio: 1.9

MCA treated with PNGaseF (sugar chain-removed natural lectin)
S/N Ratio: 6.5

SNA (natural lectin, not treated with PNGaseF)
S/N Ratio: 1.5

MCA (natural lectin, not treated with PNGaseF)
S/N Ratio: 3.1

SSA treated with PNGaseF (sugar chain-removed natural lectin)
S/N Ratio: 8

SNA treated with PNGaseF (sugar chain-removed natural lectin)
S/N Ratio: 6
